From patent US20160228502A1
Where “and” joins values, the source holds several entries; their conditions need not be identical. Identical values can stand only once. One block for each substance: values may come before it.

Tests used:
sAnk1-CFP = test: AFRET in COS7 cells, sAnk1-CFP as donor
SERCA1-CFP (rabbit) [1] = molecular target: SERCA1-CFP (rabbit) (UniProt P04191); test: AFRET in COS7 cells, SERCA1-CFP as donor
[2] = molecular target: sarco(endo)plasmic reticulum Ca^2+-ATPase 1 (SERCA1) (rabbit) (UniProt P04191); test: coIP with antibodies to SERCA1 from COS7 extracts, with or without FLAG-SLN
sarco(endo)plasmic reticulum Ca^2+-ATPase 1 (SERCA1) (rabbit), sequence (P04191 whole entry): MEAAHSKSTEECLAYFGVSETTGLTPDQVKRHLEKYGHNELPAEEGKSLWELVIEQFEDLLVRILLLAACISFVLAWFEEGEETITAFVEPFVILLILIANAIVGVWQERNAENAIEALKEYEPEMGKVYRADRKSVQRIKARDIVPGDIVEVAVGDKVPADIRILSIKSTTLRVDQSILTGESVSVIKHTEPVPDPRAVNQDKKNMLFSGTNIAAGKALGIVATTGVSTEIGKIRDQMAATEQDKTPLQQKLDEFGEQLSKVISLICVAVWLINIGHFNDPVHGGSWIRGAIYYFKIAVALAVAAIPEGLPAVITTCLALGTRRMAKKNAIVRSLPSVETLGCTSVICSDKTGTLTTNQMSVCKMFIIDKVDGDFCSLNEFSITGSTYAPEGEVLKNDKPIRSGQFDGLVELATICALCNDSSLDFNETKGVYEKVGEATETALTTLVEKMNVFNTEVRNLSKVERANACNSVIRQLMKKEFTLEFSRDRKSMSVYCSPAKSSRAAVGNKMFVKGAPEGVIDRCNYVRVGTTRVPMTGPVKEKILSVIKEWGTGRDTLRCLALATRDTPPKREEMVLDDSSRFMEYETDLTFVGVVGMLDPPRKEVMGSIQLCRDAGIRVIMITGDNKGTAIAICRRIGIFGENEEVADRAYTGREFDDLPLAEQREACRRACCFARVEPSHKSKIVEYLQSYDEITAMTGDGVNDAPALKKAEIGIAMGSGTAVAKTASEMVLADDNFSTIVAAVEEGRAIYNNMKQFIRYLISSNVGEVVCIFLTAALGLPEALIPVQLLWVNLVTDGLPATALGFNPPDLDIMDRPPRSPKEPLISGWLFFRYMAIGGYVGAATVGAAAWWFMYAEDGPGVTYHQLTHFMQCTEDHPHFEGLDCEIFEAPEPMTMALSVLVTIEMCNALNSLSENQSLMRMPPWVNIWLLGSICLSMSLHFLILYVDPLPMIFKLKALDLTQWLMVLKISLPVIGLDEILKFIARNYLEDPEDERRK

[3] = molecular target: sarco(endo)plasmic reticulum Ca^2+-ATPase 1 (SERCA1) (rabbit) (UniProt P04191); test: amylose resin pull down from COS7 extracts expressing SERCA1, immunoblot densitometry
[4] = molecular target: sarco(endo)plasmic reticulum Ca^2+-ATPase 1 (SERCA1) (rabbit) (UniProt P04191); test: cell-based or functional assay
[5] = molecular target: sarco(endo)plasmic reticulum Ca^2+-ATPase 1 (SERCA1) (rabbit) (UniProt P04191); test: coIP with antibodies to SERCA1 from COS7 extracts, densitometry
[6] = molecular target: sarco(endo)plasmic reticulum Ca^2+-ATPase 1 (SERCA1) (rabbit) (UniProt P04191); test: coIP from COS7 extracts, densitometry
[7] = molecular target: sarco(endo)plasmic reticulum Ca^2+-ATPase 1 (SERCA1) (rabbit) (UniProt P04191); test: coIP with antibodies to sAnk1 from COS7 extracts, densitometry
SERCA1-CFP (rabbit) [8] = molecular target: SERCA1-CFP (rabbit) (UniProt P04191); test: AFRET in living COS7 cells
SLN-YFP (rabbit) = SLN-YFP (rabbit) (UniProt P42532); test: AFRET in COS7 cells
SLN-YFP (rabbit), sequence (P42532 whole entry): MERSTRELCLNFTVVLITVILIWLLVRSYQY

[9] = molecular target: sarco(endo)plasmic reticulum Ca^2+-ATPase 1 (SERCA1) (rabbit) (UniProt P04191); test: coIP with antibodies to SERCA1 from COS7 extracts, densitometry, with FLAG-SLN coexpressed
SERCA1-CFP (rabbit) [10] = molecular target: SERCA1-CFP (rabbit) (UniProt P04191); test: AFRET in COS7 cells, FLAG-SLN cotransfected
SERCA1-CFP (rabbit) [11] = molecular target: SERCA1-CFP (rabbit) (UniProt P04191); test: AFRET in COS7 cells
SERCA1-CFP (rabbit) [12] = molecular target: SERCA1-CFP (rabbit) (UniProt P04191); test: AFRET (Δr=rCFP-rFRET) in COS7 cells

SERCA1-CFP (rabbit), sequence (P04191 whole entry): as the sequence (P04191 whole entry) above

- AFRET Δrmean (sAnk1-CFP): -0.028
- AFRET Δrmean (SERCA1-CFP (rabbit) [1]): -0.035
Substance: dysferlin-YFP

- fold enhancement of the interaction in the presence of FLAG-SLN [2]: 2.7 fold
Substance: sAnk1 (29-155)-FLAG

- KCa2+ ([Ca^2+] required for half-maximal activation) of SERCA1 Ca^2+-ATPase, COS7 microsomes [4]: 501 nM
- KCa2+ in pCa^2+ units, SERCA1 Ca^2+-ATPase, COS7 microsomes [4]: 6.3 pCa^2+ units
- Mean Kca (nM), Ca^2+-ATPase assay in COS7 microsomes, FIG. 6D [4]: 502 nM
- Mean Kca (pCa), Ca^2+-ATPase assay in COS7 microsomes, FIG. 6D [4]: 6.3 pCa
- ΔKCa2+ relative to SERCA1 Alone [4]: -0.02 pCa^2+ units
- ΔKCa2+, COS7 microsomes [4]: -0.01 pCa^2+ units
- percent of sAnk1 (all-L) coimmunoprecipitated compared to WT sAnk1 [5]: 49%
- reduction in coIP, normalized to coIP of SERCA1 and sAnk1 (WT) [6]: 50% and 34% to 61% (2×)
- percent of SERCA1 coimmunoprecipitated compared to WT [7]: 49%
Substance: sAnk1 (all-L)

- AFRET Δrmean (cells cotransfected with FLAG-SLN) (SERCA1-CFP (rabbit) [10]): 0.036
- AFRET Δrmean (SERCA1-CFP (rabbit) [11]): 0.021
- AFRET Δrmean (SERCA1-CFP (rabbit) [8]): 0.043
- AFRET Δrmean (SERCA1-CFP (rabbit) [12]): 0.026
Substance: sAnk1-YFP

The next lines start with the substance.

Substance: sAnk1 (29-155)-MBP fusion protein (from UniProt P0AEX9 27-392)
- fold SERCA1 pulled down relative to the MBP control [3]: 9 fold

Substance: sAnk1 (all-L)-YFP
- AFRET Δrmean (SERCA1-CFP (rabbit) [8]): 0.017

Substance: sAnk1-CFP
- AFRET Δrmean (SLN-YFP (rabbit)): 0.03

Substance: sAnk1-FLAG (C-terminal FLAG-tagged sAnk1)
- HEK 293 mean Kca (nM), Ca^2+-ATPase assay [4]: 680 nM
- HEK 293 mean Kca (pCa), Ca^2+-ATPase assay [4]: 6.17 pCa
- KCa2+ ([Ca^2+] required for half-maximal activation) of SERCA1 Ca^2+-ATPase, COS7 microsomes, all assays compiled [4]: 759 nM
- KCa2+ in pCa^2+ units, SERCA1 Ca^2+-ATPase, COS7 microsomes, all assays compiled [4]: 6.12 pCa^2+ units
- Mean Kca (nM), Ca^2+-ATPase assay in COS7 microsomes, FIG. 6B [4]: 708 nM
- Mean Kca (nM), Ca^2+-ATPase assay in COS7 microsomes, FIG. 6D [4]: 794 nM
- Mean Kca (pCa), Ca^2+-ATPase assay in COS7 microsomes, FIG. 6B [4]: 6.15 pCa
- Mean Kca (pCa), Ca^2+-ATPase assay in COS7 microsomes, FIG. 6D [4]: 6.1 pCa
- shift of SERCA1's apparent Ca^2+ affinity, COS7 microsomes [4]: -0.18 pCa^2+ units
- ΔKCa2+ in HEK293 microsomes [4]: -0.21 pCa^2+ units
- ΔKCa2+ relative to SERCA1 Alone [4]: -0.2 pCa^2+ units
- ΔKCa2+, COS7 microsomes, experiment with sAnk1 (all-L) [4]: -0.22 pCa^2+ units
- fold increase in coIP with SERCA1 on addition of FLAG-SLN, against co-transfection of SERCA1 and sAnk1 alone [9]: 2.6 fold
